These results are taken from paper PMC11912573, “Dynamic Assembly of Pentamer-Based Protein Nanotubes” (ACS Nano, 2025).

Values joined by “and” are separate entries in the source; they are usually repeats but may differ in a detail not shown here. Identical values can stand only once.

Data set [1] concerns the molecule itself. As to the kind of experiment: cryo-EM micrographs; Glacios microscope, micrographs of the assemblies; buffer of these samples not given.
Data set [2] concerns the molecule itself. The experiment in a line: cryo-EM structure; cpAaLS(119, C37S, A85C) twisted tubes, helical reconstruction in three classes (0-, 18-, 28-Å gap); 50 mM Tris-HCl pH 8.5, 0.15 M NaCl, 1 mM TCEP.
Data set [3] concerns the molecule itself. The experiment in a line: cryo-EM 2D classification; cpAaLS(119) capsomers without NaCl at pH 8.5; Titan Krios; 3D reconstruction unsuccessful (preferential orientation).

B1: circularly permuted Aquifex aeolicus lumazine synthase cpAaLS(84) (enzyme)
chain: ATPHFDYIASEVSKGLANLSLELRKPITFGVITADTLEQAIERAGTKHGNKGWEAALSAIEMANLFKSLRGTGGSGSSMQIYEGKLTAEGLRFGIVASRFNHALVDRLVEGAIDCIVRHGGREEDITLVRVPGSWEIPVAAGELARKEDIDAVIAIGVLIRG
notes: Aquifex aeolicus lumazine synthase (AaLS), from the new N-terminus at residue 85 to the native C-terminus; octapeptide linker connecting the native C- and N-termini; Aquifex aeolicus lumazine synthase (AaLS), from the native N-terminus to the new C-terminus at residue 84; source: E. coli BL21-Gold(DE3), purified (heating at 70 °C, anion exchange, SEC)
On to B1, for which the binding result in data set [1] is “binds”.

B2: cpAaLS(119, C37S, A85C) (enzyme, Aquifex aeolicus)
chain: TLEQAIERAGTKHGNKGWEAALSAIEMANLFKSLRGTGGSGSSMQIYEGKLTAEGLRFGIVASRFNHALVDRLVEGAIDSIVRHGGREEDITLVRVPGSWEIPVAAGELARKEDIDAVIAIGVLIRGCTPHFDYIASEVSKGLANLSLELRKPITFGVITAD
notes: Aquifex aeolicus lumazine synthase (AaLS), from the new N-terminus at residue 120 to the native C-terminus; octapeptide linker connecting the native C- and N-termini; Aquifex aeolicus lumazine synthase (AaLS), from the native N-terminus to the new C-terminus at residue 119, with C37S and A85C; Made from cpAaLS(119) by two rounds of site-directed mutagenesis; source: E. coli BL21-Gold(DE3), …
B2: in data set [2], the binding result is “binds”.

B3: circularly permuted Aquifex aeolicus lumazine synthase cpAaLS(119) (enzyme)
chain: TLEQAIERAGTKHGNKGWEAALSAIEMANLFKSLRGTGGSGSSMQIYEGKLTAEGLRFGIVASRFNHALVDRLVEGAIDCIVRHGGREEDITLVRVPGSWEIPVAAGELARKEDIDAVIAIGVLIRGATPHFDYIASEVSKGLANLSLELRKPITFGVITAD
notes: Aquifex aeolicus lumazine synthase (AaLS), from the new N-terminus at residue 120 to the native C-terminus; includes the α-helix(120–131); octapeptide linker connecting the native C- and N-termini; Aquifex aeolicus lumazine synthase (AaLS), from the native N-terminus to the new C-terminus at residue 119; source: E. coli BL21-Gold(DE3), purified (heating at 70 °C, anion exchange, SEC)
Regarding B3, the stoichiometry N – broadly, the number of molecules, sites or subunits per partner or assembly – in data set [3] was 5 and 10.
